Results from IntAct's records for PubMed 18829461.

B1: Protein phosphatase 1A (Homo sapiens), P35813 (parent)
chain: MGAFLDKPKMEKHNAQGQGNGLRYGLSSMQGWRVEMEDAHTAVIGLPSGLESWSFFAVYDGHAGSQVAKYCCEHLLDHITNNQDFKGSAGAPSVENVKNGIRTGFLEIDEHMRVMSEKKHGADRSGSTAVGVLISPQHTYFINCGDSRGLLCRNRKVHFFTQDHKPSNPLEKERIQNAGGSVMIQRVNGSLAVSRALGDFDYKCVHGKGPTEQLVSPEPEVHDIERSEEDDQFIILACDGIWDVMGNEELCDFVRSRLEVTDDLEKVCNEVVDTCLYKGSRDNMSVILICFPNAPKVSPEAVKKEAELDKYLECRVEEIIKKQGEGVPDLVHVMRTLASENIPSLPPGGELASKRNVIEAVYNRLNPYKNDDTDSTSTDDMW

Variants of: B1
Conditions: with cdk9_human CDK9, P50750
Sequence of cdk9_human CDK9, P50750 (P50750 whole entry): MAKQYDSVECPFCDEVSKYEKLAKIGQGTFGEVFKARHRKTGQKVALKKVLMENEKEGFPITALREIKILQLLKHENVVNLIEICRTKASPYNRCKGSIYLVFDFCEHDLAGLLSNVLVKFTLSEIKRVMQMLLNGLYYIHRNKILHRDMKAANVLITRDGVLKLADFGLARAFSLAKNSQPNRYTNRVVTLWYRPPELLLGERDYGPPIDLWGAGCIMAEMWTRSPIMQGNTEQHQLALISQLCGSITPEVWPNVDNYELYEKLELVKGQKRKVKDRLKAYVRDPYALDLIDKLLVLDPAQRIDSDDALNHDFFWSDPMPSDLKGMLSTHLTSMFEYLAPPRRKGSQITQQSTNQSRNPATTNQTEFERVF

Variant	effect of a mutation on the interaction
MGAFLDKPKMEKHNAQGQGNGLRYGLSSMQGWRVEMEDAHTAVIGLPSGLESWSFFAVYDGHAGSQVAKYCCEHLLDHITNNQDFKGSAGAPSVENVKNGIRTGFLEIDEHMRVMSEKKHGADRSGSTAVGVLISPQHTYFINCGDSRGLLCRNRKVHFFTQDHKPSNPLEKERIQNAGGSVMIQRVNGSLAVSRALGDFDYKCVHGKGPTEQLVSPEPEVHDIERSEEDDQFIILACNGIWDVMGNEELCDFVRSRLEVTDDLEKVCNEVVDTCLYKGSRDNMSVILICFPNAPKVSPEAVKKEAELDKYLECRVEEIIKKQGEGVPDLVHVMRTLASENIPSLPPGGELASKRNVIEAVYNRLNPYKNDDTDSTSTDDMW [D239N]	with no effect
